The source of these data is the supplement of paper PMC11780869.

The subject of this series is Bacillus subtilis. Nature of the series: cleaved RNA product abundance (RNA/gDNA barcode ratio) relative to median wild-type variant (ratio to wild type); higher = more accumulation of the downstream cleavage product. To be noted: cleavage site: cggR-gapA (positions -7 to +36 mutated). Summed up:
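Cleaved product abundance was measured with barcoded reporter mRNAs (truncated aprE or tetM) carrying mutagenized RNase Y cleavage-site windows in the B. subtilis chromosome. Cultures in LB at 37°C grew from OD600 0.0003 to 0.3. Gel-selected cleaved RNA was reverse transcribed and barcode-sequenced with genomic DNA barcodes, and the RNA:gDNA barcode ratio per construct was scaled to the median construct bearing the unmutated site.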

Where [1] appears, read: experiment (reporter, strain, medium): exp 2b: truncated aprE reporter, strain BJT200.
Setting [2] is: experiment (reporter, strain, medium): exp 4a: truncated aprE reporter, strain BJT201 with 2% xylose (RNase J1 expressed).
Setting [3] is: experiment (reporter, strain, medium): exp 6: tetM reporter, strain 168.

Turning to “ACAGACGAAGGAGCCGCAAAGAAGTTATTAAGGGATGAAAAATCCCTCATTATAAATATCTCTCACTTATTTAAA”, the “cleaved RNA product abundance” value runs as follows: under setting [1], 0.226; under setting [2], 0.331.
For the sequence “ACAGACGAAGGAGCCGCAAAGAAGTTATTAAGGGATGAAAAATCCCTCTATATAAATATCTCTCACTTATTTAAA”, the “cleaved RNA product abundance” value under setting [2] was found to be 0.535.
On the same count and under the same terms, the figure for “ACAGACGAAGGAGCCGCAAAGAAGTTATTAAGGGATGAAAAATCCGTCAATATAAATATCTCTCACTTATTTAAA” is 0.355.
As to “ACAGACGAAGGAGCCGCAAAGAAGTTATTAAGGGATGAAAAATCCTTCAATATAAATATCTCTCACTTATTTAAA”, the “cleaved RNA product abundance” value by setting is: under setting [1], 0.355; under setting [2], 0.505.
As to “ACAGACGAAGGAGCCGCAAAGAAGTTATTAAGGGATGAAAAATCGCTCAATATAAATATCTCTCACTTATTTAAA”, the “cleaved RNA product abundance” value under setting [2] amounted to 0.0823.
Same read-out and setting: the figure for “ACAGACGAAGGAGCCGCAAAGAAGTTATTAAGGGATGAAAAATCTCTCAATATAAATATCTCTCACTTATTTAAA” is 0.506.
For the sequence “ACAGACGAAGGAGCCGCAAAGAAGTTATTAAGGGATGAAAAATTCCTCAATATAAATATCTCTCACTTATTTAAA”, the “cleaved RNA product abundance” value reads like this: under setting [1], 0.274; under setting [2], 0.327.
On to “ACAGACGAAGGAGCCGCAAAGAAGTTATTAAGGGATGAAAACTCCCTCAATATAAATATCTCTCACTTATTTAAA”, for which, under setting [1], the “cleaved RNA product abundance” value was found to be 0.816.
“ACAGACGAAGGAGCCGCAAAGAAGTTATTAAGGGATGAAATATCCCTCAATATAAATATCTCTCACTTATTTAAA”: under setting [2], the “cleaved RNA product abundance” value is 0.586.
Take “ACAGACGAAGGAGCCGCAAAGAAGTTATTAAGGGATGAACAATACCTCAATATAAATATCTCTCACTTATTTAAA”: the “cleaved RNA product abundance” value under setting [2] was 0.229.
On the same count and under the same terms, then “ACAGACGAAGGAGCCGCAAAGAAGTTATTAAGGGATGAACAATCACTCAATATAAATATCTCTCACTTATTTAAA”, with 0.105; and “ACAGACGAAGGAGCCGCAAAGAAGTTATTAAGGGATGAACAATCCCACAATATAAATATCTCTCACTTATTTAAA”, with 0.364.
As for “ACAGACGAAGGAGCCGCAAAGAAGTTATTAAGGGATGAACAATCCCTAAATATAAATATCTCTCACTTATTTAAA”, the “cleaved RNA product abundance” value is 0.33 under setting [1] and 0.62 under setting [2].
For the sequence “ACAGACGAAGGAGCCGCAAAGAAGTTATTAAGGGATGAACAATCCCTCAACATAAATATCTCTCACTTATTTAAA”, under setting [2], the “cleaved RNA product abundance” value came out at 0.265.
Take “ACAGACGAAGGAGCCGCAAAGAAGTTATTAAGGGATGAACAATCCCTCAATAAAAATATCTCTCACTTATTTAAA”: the “cleaved RNA product abundance” value under setting [2] was 0.151.
“ACAGACGAAGGAGCCGCAAAGAAGTTATTAAGGGATGAACAATCCCTCAATATAAATATCTCTCACTTATTTAAA”: the “cleaved RNA product abundance” value by setting is: under setting [1], 0.842; under setting [2], 0.864; under setting [3], 0.875.
In the case of “ACAGACGAAGGAGCCGCAAAGAAGTTATTAAGGGATGAACAATCCCTCAATATATATATCTCTCACTTATTTAAA”, under setting [2], the “cleaved RNA product abundance” value was found to be 0.441.
Same read-out and setting: then “ACAGACGAAGGAGCCGCAAAGAAGTTATTAAGGGATGAACAATCCCTCAATATTAATATCTCTCACTTATTTAAA”, with 0.189; and “ACAGACGAAGGAGCCGCAAAGAAGTTATTAAGGGATGAACAATCCCTCACTATAAATATCTCTCACTTATTTAAA”, with 0.331.
Regarding “ACAGACGAAGGAGCCGCAAAGAAGTTATTAAGGGATGAACAATCCCTCATTATAAATATCTCTCACTTATTTAAA”, the “cleaved RNA product abundance” value worked out at 0.22 under setting [1] and 0.321 under setting [2].
For “ACAGACGAAGGAGCCGCAAAGAAGTTATTAAGGGATGAACAATCCCTCGATATAAATATCTCTCACTTATTTAAA”, the “cleaved RNA product abundance” value under setting [2] came out at 0.554.
On the same count and under the same terms, then “ACAGACGAAGGAGCCGCAAAGAAGTTATTAAGGGATGAACAATCCGTCAATATAAATATCTCTCACTTATTTAAA”, with 0.109; and “ACAGACGAAGGAGCCGCAAAGAAGTTATTAAGGGATGAACAATCCTTCAATATAAATATCTCTCACTTATTTAAA”, with 0.58.
Still for that read-out and setting: the figure for “ACAGACGAAGGAGCCGCAAAGAAGTTATTAAGGGATGAACAATCGCTCAATATAAATATCTCTCACTTATTTAAA” is 0.104.
As for “ACAGACGAAGGAGCCGCAAAGAAGTTATTAAGGGATGAACAATGCCTCAATATAAATATCTCTCACTTATTTAAA”, the “cleaved RNA product abundance” value under setting [2] amounted to 0.136.
Still for that read-out and setting: the figure for “ACAGACGAAGGAGCCGCAAAGAAGTTATTAAGGGATGAACAATTCCTCAATATAAATATCTCTCACTTATTTAAA” is 0.44; for “ACAGACGAAGGAGCCGCAAAGAAGTTATTAAGGGATGAACATTCCCTCAATATAAATATCTCTCACTTATTTAAA” it is 0.633.
The same measure, in the same setting: then “ACAGACGAAGGAGCCGCAAAGAAGTTATTAAGGGATGAACTATCCCTCAATATAAATATCTCTCACTTATTTAAA”, with 0.794; and “ACAGACGAAGGAGCCGCAAAGAAGTTATTAAGGGATGAAGAAGCCCTCAATATAAATATCTCTCACTTATTTAAA”, with 0.549; and “ACAGACGAAGGAGCCGCAAAGAAGTTATTAAGGGATGAAGAATACCTCAATATAAATATCTCTCACTTATTTAAA”, with 0.106.
Turning to “ACAGACGAAGGAGCCGCAAAGAAGTTATTAAGGGATGAAGAATCCATCAATATAAATATCTCTCACTTATTTAAA”, the “cleaved RNA product abundance” value under setting [1] is 0.124.
For the sequence “ACAGACGAAGGAGCCGCAAAGAAGTTATTAAGGGATGAAGAATCCCCCAATATAAATATCTCTCACTTATTTAAA”, under setting [2], the “cleaved RNA product abundance” value was found to be 0.183.
The same measure, in the same setting: the figure for “ACAGACGAAGGAGCCGCAAAGAAGTTATTAAGGGATGAAGAATCCCTAAATATAAATATCTCTCACTTATTTAAA” is 0.44.
“ACAGACGAAGGAGCCGCAAAGAAGTTATTAAGGGATGAAGAATCCCTCAATATAAATATCTCTCACTTATTTAAA”: the “cleaved RNA product abundance” value was 0.653 under setting [1], 0.658 under setting [2] and 0.732 under setting [3].
On to “ACAGACGAAGGAGCCGCAAAGAAGTTATTAAGGGATGAAGAATCCCTCAATATCAATATCTCTCACTTATTTAAA”, for which the “cleaved RNA product abundance” value under setting [2] worked out at 0.0586.
On the same count and under the same terms, the figure for “ACAGACGAAGGAGCCGCAAAGAAGTTATTAAGGGATGAAGAATCCCTCCATATAAATATCTCTCACTTATTTAAA” is 0.273.
For the sequence “ACAGACGAAGGAGCCGCAAAGAAGTTATTAAGGGATGAAGAATCCTTCAATATAAATATCTCTCACTTATTTAAA”, the “cleaved RNA product abundance” value under setting [1] turned out to be 0.265 and the “cleaved RNA product abundance” value under setting [2] was found to be 0.405.
Take “ACAGACGAAGGAGCCGCAAAGAAGTTATTAAGGGATGAAGAATTCCTCAATATAAATATCTCTCACTTATTTAAA”: the “cleaved RNA product abundance” value under setting [2] worked out at 0.29.
Take “ACAGACGAAGGAGCCGCAAAGAAGTTATTAAGGGATGAAGATTCCCTCAATATAAATATCTCTCACTTATTTAAA”: under setting [2], the “cleaved RNA product abundance” value came out at 0.68.
Still for that read-out and setting: the figure for “ACAGACGAAGGAGCCGCAAAGAAGTTATTAAGGGATGAAGCATCCCTCAATATAAATATCTCTCACTTATTTAAA” is 0.748.
Consider “ACAGACGAAGGAGCCGCAAAGAAGTTATTAAGGGATGAATAAAACCTCAATATAAATATCTCTCACTTATTTAAA”, for which the “cleaved RNA product abundance” value is, setting by setting: under setting [1], 0.119; under setting [2], 0.125.
In the same order, the values of “ACAGACGAAGGAGCCGCAAAGAAGTTATTAAGGGATGAATAAACACTCAATATAAATATCTCTCACTTATTTAAA” are 0.0698 and 0.172.
As for “ACAGACGAAGGAGCCGCAAAGAAGTTATTAAGGGATGAATAAACCATCAATATAAATATCTCTCACTTATTTAAA”, the “cleaved RNA product abundance” value under setting [1] was 0.125 and the “cleaved RNA product abundance” value under setting [2] is 0.101.
The corresponding values for “ACAGACGAAGGAGCCGCAAAGAAGTTATTAAGGGATGAATAAACCCACAATATAAATATCTCTCACTTATTTAAA” are 0.143 and 0.0828.
As to “ACAGACGAAGGAGCCGCAAAGAAGTTATTAAGGGATGAATAAACCCGCAATATAAATATCTCTCACTTATTTAAA”, the “cleaved RNA product abundance” value under setting [2] was found to be 0.103.
The same measure, in the same setting: the figure for “ACAGACGAAGGAGCCGCAAAGAAGTTATTAAGGGATGAATAAACCCTAAATATAAATATCTCTCACTTATTTAAA” is 0.4.
For “ACAGACGAAGGAGCCGCAAAGAAGTTATTAAGGGATGAATAAACCCTCAAAATAAATATCTCTCACTTATTTAAA”, the “cleaved RNA product abundance” value under setting [1] was found to be 0.196 and the “cleaved RNA product abundance” value under setting [2] was 0.198.
In the same order, the values of “ACAGACGAAGGAGCCGCAAAGAAGTTATTAAGGGATGAATAAACCCTCAACATAAATATCTCTCACTTATTTAAA” are 0.122 and 0.0675.
In the case of “ACAGACGAAGGAGCCGCAAAGAAGTTATTAAGGGATGAATAAACCCTCAATATAAAAATCTCTCACTTATTTAAA”, under setting [2], the “cleaved RNA product abundance” value worked out at 0.519.
The same measure, in the same setting: then “ACAGACGAAGGAGCCGCAAAGAAGTTATTAAGGGATGAATAAACCCTCAATATAAATAACTCTCACTTATTTAAA”, with 0.464.
For “ACAGACGAAGGAGCCGCAAAGAAGTTATTAAGGGATGAATAAACCCTCAATATAAATATCTCTCACTTATTTAAA”, the “cleaved RNA product abundance” value came to 0.443 under setting [1], 0.52 under setting [2] and 0.578 under setting [3].
Regarding “ACAGACGAAGGAGCCGCAAAGAAGTTATTAAGGGATGAATAAACCCTCAATATAAATGTCTCTCACTTATTTAAA”, the “cleaved RNA product abundance” value is 0.292 under setting [1] and 0.39 under setting [2].
In the same order, the values of “ACAGACGAAGGAGCCGCAAAGAAGTTATTAAGGGATGAATAAACCCTCAATATAATTATCTCTCACTTATTTAAA” are 0.293 and 0.33.
